Reference: patent US20090318341A1
Like-named read-outs stand apart in the source and are kept apart here. Ends that are not written are not given here.

Columns and labels:
Assay in all cases: cell-based or functional assay
[1] = molecular target: human Kv1.3 voltage-gated potassium channel (human) (UniProt P22001)
[2] = molecular target: human Kv1.3 channel (human) (UniProt P22001)
[3] = molecular target: human Kv1.1 channel (human) (UniProt Q09470)
[4] = molecular target: human Kv1.3 channel (human) (UniProt P22001); remark: listed apart in the source

Sequence of human Kv1.3 channel (human) (P22001 whole entry): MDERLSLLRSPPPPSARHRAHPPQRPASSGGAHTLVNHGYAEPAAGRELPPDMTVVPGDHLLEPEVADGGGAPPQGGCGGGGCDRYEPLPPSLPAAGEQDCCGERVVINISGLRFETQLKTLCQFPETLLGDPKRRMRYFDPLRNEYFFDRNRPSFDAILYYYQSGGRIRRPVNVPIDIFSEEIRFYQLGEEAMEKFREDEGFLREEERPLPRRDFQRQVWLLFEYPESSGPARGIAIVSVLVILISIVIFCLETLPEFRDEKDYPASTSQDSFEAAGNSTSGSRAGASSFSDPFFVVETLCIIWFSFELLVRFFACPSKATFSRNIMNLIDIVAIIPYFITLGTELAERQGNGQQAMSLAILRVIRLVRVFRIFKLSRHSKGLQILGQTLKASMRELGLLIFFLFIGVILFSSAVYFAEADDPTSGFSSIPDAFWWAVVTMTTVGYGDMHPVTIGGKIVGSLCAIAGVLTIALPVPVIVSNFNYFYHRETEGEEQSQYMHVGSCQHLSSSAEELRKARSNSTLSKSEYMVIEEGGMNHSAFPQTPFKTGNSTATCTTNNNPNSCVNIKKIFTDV
Sequence of human Kv1.3 voltage-gated potassium channel (human) (P22001 whole entry): as above
Sequence of human Kv1.1 channel (human) (Q09470 whole entry): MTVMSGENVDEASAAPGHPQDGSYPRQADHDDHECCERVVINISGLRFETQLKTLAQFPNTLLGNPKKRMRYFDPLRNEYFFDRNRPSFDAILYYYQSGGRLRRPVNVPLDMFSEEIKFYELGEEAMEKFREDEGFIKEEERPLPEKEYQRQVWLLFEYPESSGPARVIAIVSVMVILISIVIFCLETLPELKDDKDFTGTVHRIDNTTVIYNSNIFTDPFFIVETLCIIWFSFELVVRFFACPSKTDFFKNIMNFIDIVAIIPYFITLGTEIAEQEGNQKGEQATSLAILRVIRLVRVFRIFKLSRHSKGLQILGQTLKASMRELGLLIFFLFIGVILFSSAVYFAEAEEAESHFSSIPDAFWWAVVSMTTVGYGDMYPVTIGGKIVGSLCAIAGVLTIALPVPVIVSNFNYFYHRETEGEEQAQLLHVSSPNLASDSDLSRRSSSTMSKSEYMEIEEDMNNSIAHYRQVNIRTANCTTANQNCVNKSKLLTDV

20k PEG-OSK1[Ala29, 1Nal34] (peptide)
WB/IFNg (IC50, nM), human whole blood assay [1]: 0.081 nM | WB/IL-2 (IC50, nM), human whole blood assay [1]: 0.049 nM

20k PEG-ShK (peptide)
WB/IFNg (IC50, nM), human whole blood assay [1]: 0.065 nM | WB/IL-2 (IC50, nM), human whole blood assay [1]: 0.046 nM

Fc-L5-ShK[2-35] (Fc fusion)
IC50 of block of the outward potassium current, whole cell patch clamp [2]: 100 pM

Fc-L10-ShK[2-35] (CHO-derived) (Fc fusion)
IC50 of block of the outward potassium current, whole cell patch clamp [2]: 115 pM

GGGGS-Osk1 (peptide)
WB/IFNg (IC50, nM), human whole blood assay [1]: 2.2 nM | WB/IL-2 (IC50, nM), human whole blood assay [1]: 1.36 nM

OSK1 (native Orthochirus scrobiculosus toxin peptide)
Kv1.3 Selectivity (=Kv1.1/Kv.3 IC50) [1]: 5 fold

OSK1 analogue E16K, K20D (peptide)
WB/IFNg (IC50, nM), human whole blood assay [1]: 1.32 nM | WB/IL-2 (IC50, nM), human whole blood assay [1]: 1.58 nM

Synthetic OSK1 (peptide)
hKv1.1: IC50 [pM], block of K+ current, whole cell patch clamp [3]: 160 pM | hKv1.3: IC50 [pM], block of K+ current, whole cell patch clamp [2]: 39 pM | selectivity ratio hKv1.1/hKv1.3 (IC50 on hKv1.1 over IC50 on hKv1.3) [2]: 4 fold

synthetic OSK1 toxin peptide
IC50 of block of the outward potassium current, whole cell patch clamp [2]: 39 pM

SCIDTIPKSRCTAFQCKHSMKYRLSFCRKTCGTC (not fully specified; ends and bridges not checked) [ShK[2-35] synthetic peptide analog]
IC50 of block of the outward potassium current, whole cell patch clamp [4]: 49 pM
